Patent US20250289885A1 (TRUSTEES OF BOSTON UNIVERSITY, published 2025)
Changes are numbered by the printed parent chain. In names and notes the source's numbering stands. Each block holds one binder with its values, some of them ahead of it.

How the values were obtained:
[1] = molecular target: T1, Notch1-Gal4 chimeric receptor (hN1 ECD-Gal4 ICD) on CHO-K1 cells (human, UniProt P46531 19-1735); assay: fluorescence microscopy of JFX650-labelled probody on CHO-K1 cells expressing Notch1-Gal4
T1 construct: extracellular domain; H2B-mTurq2 marker; also called Notch1-Ga4; NOTCH1 ECD-GAL4 ICD; not shown: transmembrane segment and Gal4 intracellular domain
Source text: FIGS. 30A and 30B present data showing anti-NRR1-based probodies can bind Notch1 receptors following deletion of the S1 loop (ΔS1) containing the NRR's furin cleavage site. The probodies used represent the anti-NRR1 scFv fused to with a soluble mutant NRR (V1667D) from Notch1, linked together via a TEV protease substrate sequence. The probodies were also fused with a HaloTag domain, which remains attached to the anti-NRR scFv following TEV cleavage. CHO-K1 cells expressing a Notch1-Gal4 chimeric receptor were treated with intact (uncleaved) and TEV protease-cleaved versions of the indicated probodies. The HaloTag domains were conjugated with a JFX650 dye to permit visualization of their binding to cell surface Notch1-Ga4 receptors. (FIG. 30A) Fluorescently labeled probody containing the S1 cleavage loop (Probody^V1667D-JF650) binds Notch1-Gal4 only in its TEV protease-cleaved state. (FIG. 30B) Fluorescently labeled probody containing the S1 cleavage loop deletion (Probody^V1667D(ΔS1)-JF650) similarly binds Notch1-Gal4 in a manner that is dependent on TEV protease cleavage. Insets represent emissions from a constitutively expressed H2B-mTurq2 expressed by the analyzed cells.

[2] = molecular target: T2, hNotch1 receptor, stably integrated, on clonal CHO-K1 cells (human, UniProt P46531 19-2555); assay: fluorescence microscopy of cell-surface bound probody on clonal CHO-K1 cells expressing hNotch1, 40-minute incubation, wash, fixation
T2 construct: whole, on cells; also called human Notch1
Source text: FIGS. 33A-33C present schematics and data showing activation of a probody/masked antibody with specificity against human Notch1 (hNotch) NRR. (FIG. 33A) Schematic depicting the TEV protease (TEVp)-mediated activation and binding of the anti-hNotch1 probody. The probody sequence used contains the V1677D mutant NRR as a “mask” and is linked to an anti-hNotch1 scFv via a linker containing a TEVp substrate sequence. Upon cleavage by TEVp, the NRR mask dissociates from the scFv and is thus able to bind its corresponding antigen. A fluorophore is linked to the probody sequence to permit visualization. (FIGS. 33B and 33C) Tests of scFv binding to hNotch1. Clonal CHO-K1 cells expressing a stably integrated hNotch1 receptor were incubated with the body alone (FIG. 33B) or with the pro body treated with TEVp (FIG. 33C). Following a 40-minute incubation, probody-containing media was removed, and cells were washed with fresh media prior to fixation and DNA staining with Hoechst-JF526 (inset). Cells were imaged to detect cell-surface bound (activated) probody and Hoechst-JF526. Binding to hNotch1 was observed only with the TEVp-cleaved probody sequence. The antibody sequence used in the body can inhibit signaling by wild-type and various disease-associated hNotch1 mutations (Wu et al. Nature 464: 1052-1057 (2010)).

[3] = molecular target: T3, human Notch1-derived receptor overexpressed on CHO-K1 cells (human, UniProt P46531 19-1762, limits assumed); assay: fluorescence microscopy of JFX650-labelled probody on CHO-K1 cells overexpressing a human Notch1-derived receptor
T3 construct: Cells also express H2B-mTurq; also called Notch1 receptors
Protocol: FIG. 37 present data showing Probody with a mask based on the wild-type Notch1-NRR binds Notch1 Receptors in a Cleavage-Dependent Manner. A probody containing the anti-NRR1 scFv was fused to a TEV protease cleavable linker and the wild-type Notch1 NRR. The probodies also contained a HaloTag for labeling with a JFX650 dye. Binding of the probody to Notch1 receptors was tested using uncleaved and TEV protease-cleaved probody. The evaluated cells were based on CHO-K1 celle overexpressing a human Notch1-derived receptor; cells also expressed H2B-mTurq as a fluorescent marker (inset).

[4] = molecular target: T4, mouse Notch1 NRR with the T-ALL mutation A1702P, in the receptor design (mouse, UniProt Q01705 1427-1752); assay: anti-HA immunoblot (aHA-HRP) of cell lysate and conditioned media of HEK293-FT cells expressing the receptor, after TEVp cleavage of the scFv-NRR linker
T4 construct: also called A1691P in mouse Notch1
Protocol: (§1) HEK293-FT cells were transfected with pcDNA3-based plasmids encoding the indicated receptor with TEVs substrate linker and N-terminal HA tag. (FIG. 11A) cell lysates and conditioned anti-HA immunoblots after 3 hours of TEVp incubation, overwise indicated. FL; full-length receptor, NTF; N-terminal fragment, Ab; ‘A-2’ variant of the anti-NRR1 scFv. (FIG. 11B) Inventors further evaluated the efficiency of TEVs cleavage by comparing an anti-HA blot (which stains all copies of the receptor, including those in the secretory pathway) to a streptavidin blot probing for surface-bound receptor copies by labelling receptors with a cell-impermeant halo-ligand-biotin conjugate. […] Immunoblot of cell lysates and conditioned media of HEK293-FT expressing the ‘V1677D’ design by transient transfection. Cells were stained with cell-impermeant halo-biotin prior to TEVp addition. Cell lysates and conditioned media were collected for immunoblot analysis after 3 hours. Colored triangle markers denote FL (top arrow of top blot), NTF (middle arrow of top blot; top arrow of bottom blot) and cleaved NTF (bottom arrows of both blots) species.
(§2) Inventors then evaluated whether these receptors have different TEVs cleavage efficiencies and anti-NRR1 scFv dissociation kinetics. They immunoblotted for the anti-NRR1 scFv mask in cell lysates and conditioned media in cells expressing the non-mutated WT, V1677D, and A1702P NRR receptors in the absence or addition of exogenous TEVp. Inventors than chose to analyze the V1677D and A1702P mutations since they were the designs with the highest and lowest protease-induced reporter activation, respectively.

[5] = molecular target: T5, mouse Notch1 NRR with V1677D, in the ProNotch receptor (mouse, UniProt Q01705 1427-1752); assay: as above
T5 construct: Domain of a synthetic receptor on cells; also called NRR(V1677D); Mouse NRR1-V1677D
Protocol: as §1, §2

[6] = molecular target: T6, mouse Notch1 NRR, non-mutated (WT), in the control receptor HA-Halo-antiNRR-TEVs-NRR-GAL4VP64 (mouse, UniProt Q01705 1427-1752); assay: as above
T6 construct: Domain of a synthetic receptor on cells; also called non-mutated NRR control; Mouse NRR1-WT
Protocol: as §1, §2

T1 sequence (P46531 19-1735, stated change not applied): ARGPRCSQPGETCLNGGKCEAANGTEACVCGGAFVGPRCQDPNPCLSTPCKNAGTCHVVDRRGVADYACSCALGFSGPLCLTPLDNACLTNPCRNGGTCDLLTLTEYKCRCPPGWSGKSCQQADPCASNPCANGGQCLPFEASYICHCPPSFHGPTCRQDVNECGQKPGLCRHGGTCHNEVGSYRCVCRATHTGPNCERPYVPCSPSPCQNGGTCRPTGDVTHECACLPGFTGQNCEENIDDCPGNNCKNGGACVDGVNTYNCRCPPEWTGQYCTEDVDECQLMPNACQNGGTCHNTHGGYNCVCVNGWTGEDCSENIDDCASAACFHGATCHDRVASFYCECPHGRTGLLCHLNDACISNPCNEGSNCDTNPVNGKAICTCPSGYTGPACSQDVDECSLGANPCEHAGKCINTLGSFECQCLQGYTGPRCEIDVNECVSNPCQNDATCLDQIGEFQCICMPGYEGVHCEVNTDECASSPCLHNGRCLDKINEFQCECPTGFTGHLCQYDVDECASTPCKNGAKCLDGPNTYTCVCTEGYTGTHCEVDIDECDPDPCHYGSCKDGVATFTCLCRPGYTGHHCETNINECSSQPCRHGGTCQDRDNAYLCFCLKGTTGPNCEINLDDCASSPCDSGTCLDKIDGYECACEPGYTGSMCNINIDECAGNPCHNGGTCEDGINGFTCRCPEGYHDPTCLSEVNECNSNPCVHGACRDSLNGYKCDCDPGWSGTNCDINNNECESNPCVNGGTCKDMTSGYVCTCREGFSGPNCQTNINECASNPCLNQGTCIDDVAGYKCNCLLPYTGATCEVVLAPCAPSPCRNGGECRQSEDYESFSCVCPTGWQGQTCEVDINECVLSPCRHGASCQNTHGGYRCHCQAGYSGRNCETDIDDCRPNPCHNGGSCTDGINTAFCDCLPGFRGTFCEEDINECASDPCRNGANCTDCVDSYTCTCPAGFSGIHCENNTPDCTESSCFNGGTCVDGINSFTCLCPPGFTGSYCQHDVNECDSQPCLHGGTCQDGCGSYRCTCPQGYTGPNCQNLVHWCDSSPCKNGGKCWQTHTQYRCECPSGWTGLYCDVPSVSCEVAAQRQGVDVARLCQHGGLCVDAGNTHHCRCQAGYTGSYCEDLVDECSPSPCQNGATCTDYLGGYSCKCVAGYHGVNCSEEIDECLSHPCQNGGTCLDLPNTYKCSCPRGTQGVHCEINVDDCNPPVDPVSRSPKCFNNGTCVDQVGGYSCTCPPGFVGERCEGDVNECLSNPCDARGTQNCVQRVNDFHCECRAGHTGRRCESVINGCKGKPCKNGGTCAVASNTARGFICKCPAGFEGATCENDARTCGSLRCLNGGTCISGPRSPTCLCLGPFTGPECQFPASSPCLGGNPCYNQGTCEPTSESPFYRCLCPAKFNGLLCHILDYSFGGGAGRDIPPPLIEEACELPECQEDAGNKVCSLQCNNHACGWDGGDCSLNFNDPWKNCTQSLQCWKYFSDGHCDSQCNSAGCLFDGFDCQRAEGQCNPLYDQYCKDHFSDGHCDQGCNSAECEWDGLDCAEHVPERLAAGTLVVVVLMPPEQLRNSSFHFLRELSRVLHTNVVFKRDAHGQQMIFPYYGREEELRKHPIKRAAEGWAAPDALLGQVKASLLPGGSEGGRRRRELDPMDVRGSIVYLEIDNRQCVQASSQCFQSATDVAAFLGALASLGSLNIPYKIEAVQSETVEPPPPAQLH
T5 sequence (Q01705 1427-1752 V1666D limits assumed): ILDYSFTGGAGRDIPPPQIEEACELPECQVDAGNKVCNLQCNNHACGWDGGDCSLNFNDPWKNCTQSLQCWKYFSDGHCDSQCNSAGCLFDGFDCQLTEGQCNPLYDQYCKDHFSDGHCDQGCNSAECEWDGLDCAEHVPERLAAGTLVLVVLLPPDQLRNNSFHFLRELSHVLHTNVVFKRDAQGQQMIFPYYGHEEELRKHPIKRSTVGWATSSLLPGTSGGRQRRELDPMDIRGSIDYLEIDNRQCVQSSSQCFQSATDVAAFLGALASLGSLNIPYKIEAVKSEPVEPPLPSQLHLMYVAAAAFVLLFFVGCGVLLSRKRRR
T6 sequence (Q01705 1427-1752 limits assumed, change not shown): as the sequence (Q01705 1427-1752 V1666D limits assumed) above, with D240V counted along it
T4 sequence (Q01705 1427-1752 A1691P limits assumed): as the sequence (Q01705 1427-1752 V1666D limits assumed) above, with D240V, A265P counted along it
T2 sequence (P46531 19-2555): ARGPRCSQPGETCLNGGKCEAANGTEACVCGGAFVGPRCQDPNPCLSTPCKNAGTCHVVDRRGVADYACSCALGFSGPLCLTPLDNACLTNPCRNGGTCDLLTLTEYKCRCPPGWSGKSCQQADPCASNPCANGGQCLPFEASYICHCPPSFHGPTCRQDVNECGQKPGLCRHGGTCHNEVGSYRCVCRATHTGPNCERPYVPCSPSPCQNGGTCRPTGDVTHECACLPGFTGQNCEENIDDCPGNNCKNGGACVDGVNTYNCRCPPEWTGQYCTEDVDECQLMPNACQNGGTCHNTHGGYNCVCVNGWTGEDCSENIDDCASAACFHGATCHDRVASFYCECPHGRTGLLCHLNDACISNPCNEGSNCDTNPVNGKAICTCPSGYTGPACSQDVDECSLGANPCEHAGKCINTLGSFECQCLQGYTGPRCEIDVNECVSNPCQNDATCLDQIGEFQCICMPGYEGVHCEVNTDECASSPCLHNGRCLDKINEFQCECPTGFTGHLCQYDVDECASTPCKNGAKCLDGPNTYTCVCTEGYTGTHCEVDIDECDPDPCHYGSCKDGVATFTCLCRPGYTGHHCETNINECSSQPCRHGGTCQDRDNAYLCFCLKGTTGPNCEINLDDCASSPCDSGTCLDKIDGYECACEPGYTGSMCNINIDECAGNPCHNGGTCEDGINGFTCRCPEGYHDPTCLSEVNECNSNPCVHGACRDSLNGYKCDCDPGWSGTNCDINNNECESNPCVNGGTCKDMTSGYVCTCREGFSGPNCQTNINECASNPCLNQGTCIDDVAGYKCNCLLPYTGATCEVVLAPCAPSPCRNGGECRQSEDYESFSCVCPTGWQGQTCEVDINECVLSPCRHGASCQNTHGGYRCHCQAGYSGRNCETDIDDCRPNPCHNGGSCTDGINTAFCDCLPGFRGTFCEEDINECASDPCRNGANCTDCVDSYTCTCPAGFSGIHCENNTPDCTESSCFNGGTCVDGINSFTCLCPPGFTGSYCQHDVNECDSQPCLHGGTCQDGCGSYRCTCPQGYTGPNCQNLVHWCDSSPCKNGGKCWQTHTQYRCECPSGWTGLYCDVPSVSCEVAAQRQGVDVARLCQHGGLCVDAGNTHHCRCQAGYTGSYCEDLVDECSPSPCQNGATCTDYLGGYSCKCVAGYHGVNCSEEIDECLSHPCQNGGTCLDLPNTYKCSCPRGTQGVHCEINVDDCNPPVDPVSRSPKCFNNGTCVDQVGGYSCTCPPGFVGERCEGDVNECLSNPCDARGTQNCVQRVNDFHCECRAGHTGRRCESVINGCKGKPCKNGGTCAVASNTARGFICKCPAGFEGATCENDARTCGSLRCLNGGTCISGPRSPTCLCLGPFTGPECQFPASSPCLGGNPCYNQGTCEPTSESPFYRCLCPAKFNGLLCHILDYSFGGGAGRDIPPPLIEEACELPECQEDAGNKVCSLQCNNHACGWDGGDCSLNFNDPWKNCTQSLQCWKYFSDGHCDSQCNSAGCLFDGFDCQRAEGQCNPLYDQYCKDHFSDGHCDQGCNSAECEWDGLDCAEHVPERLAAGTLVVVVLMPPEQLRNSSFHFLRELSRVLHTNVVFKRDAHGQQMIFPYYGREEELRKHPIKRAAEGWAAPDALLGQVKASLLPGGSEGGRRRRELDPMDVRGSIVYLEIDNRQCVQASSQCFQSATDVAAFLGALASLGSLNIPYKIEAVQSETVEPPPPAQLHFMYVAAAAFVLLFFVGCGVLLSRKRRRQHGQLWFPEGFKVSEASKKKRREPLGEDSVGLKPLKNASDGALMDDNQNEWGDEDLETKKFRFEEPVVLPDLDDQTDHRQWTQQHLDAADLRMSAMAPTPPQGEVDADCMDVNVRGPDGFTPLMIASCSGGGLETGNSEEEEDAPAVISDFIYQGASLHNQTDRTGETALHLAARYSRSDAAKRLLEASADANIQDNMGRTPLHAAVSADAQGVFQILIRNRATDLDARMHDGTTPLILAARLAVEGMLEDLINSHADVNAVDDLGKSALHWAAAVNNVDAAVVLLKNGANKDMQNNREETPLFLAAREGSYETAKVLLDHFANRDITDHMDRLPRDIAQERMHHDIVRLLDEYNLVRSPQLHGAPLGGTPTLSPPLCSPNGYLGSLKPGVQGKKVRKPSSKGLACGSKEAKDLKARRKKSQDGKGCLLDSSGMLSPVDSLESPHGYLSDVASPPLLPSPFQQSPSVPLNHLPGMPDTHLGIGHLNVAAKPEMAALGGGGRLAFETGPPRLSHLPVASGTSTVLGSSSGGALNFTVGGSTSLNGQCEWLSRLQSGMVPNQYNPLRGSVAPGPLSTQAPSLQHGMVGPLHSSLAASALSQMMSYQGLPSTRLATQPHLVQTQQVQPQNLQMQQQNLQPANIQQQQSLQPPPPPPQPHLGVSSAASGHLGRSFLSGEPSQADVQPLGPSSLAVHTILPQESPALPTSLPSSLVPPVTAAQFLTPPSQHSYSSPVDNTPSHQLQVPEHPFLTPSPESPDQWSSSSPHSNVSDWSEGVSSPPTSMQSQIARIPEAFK

B1: TEV-cleavable Anti-Notch1 probody, Genentech scFv (HaloTag-anti-NRR1-scFv-TEVcs-msNRR1^V1677D), intact (uncleaved) (other)
chain: YPYDVPDYATGMAEIGTGFPFDPHYVEVLGERMHYVDVGPRDGTPVLFLHGNPTSSYVWRNIIPHVAPTHRCIAPDLIGMGKSDKPDLGYFFDDHVRFMDAFIEALGLEEVVLVIHDWGSALGFHWAKRNPERVKGIAFMEFIRPIPTWDEWPEFARETFQAFRTTDVGRKLIIDQNVFIEGTLPMGVVRPLTEVEMDHYREPFLNPVDREPLWRFPNELPIAGEPANIVALVEEYMDWLHQSPVPKLLFWGTPGVLIPPAEAARLAKSLPNCKAVDIGPGLNLLQEDNPDLIGSEIARWLSTLEISGGGGGSTGDGGGGEVQLVESGGGLVQPGGSLRLSCAASGFTFSSYWIHWVRQAPGKGLEWVARINPPNRSNQYADSVKGRFTISADTSKNTAYLQMNSLRAEDTAVYYCARGSGFRWVMDYWGQGTLVTVSSGGSSRSSSSGGGGSGGGGDIQMTQSPSSLSASVGDRVTITCRASQDVSTAVAWYQQKPGKAPKLLIYSASFLYSGVPSRFSGSGSGTDFTLTISSLQPEDFATYYCQQFYTTPSTFGQGTKVEIKGSNSGGTLEGGGSGENLYFQGGGGGRTGGGSEQKLISEEDLGGGSILDYSFTGGAGRDIPPPQIEEACELPECQVDAGNKVCNLQCNNHACGWDGGDCSLNFNDPWKNCTQSLQCWKYFSDGHCDSQCNSAGCLFDGFDCQLTEGQCNPLYDQYCKDHFSDGHCDQGCNSAECEWDGLDCAEHVPERLAAGTLVLVVLLPPDQLRNNSFHFLRELSHVLHTNVVFKRDAQGQQMIFPYYGHEEELRKHPIKRSTVGWATSSLLPGTSGGRQRRELDPMDIRGSIDYLEIDNRQCVQSSSQCFQSATDVAAFLGALASLGSLNIPYKIEAVKSEPVEGPV
modifications: HaloTag domain conjugated with a fluorescent HaloTag-ligand dye in the binding tests (JFX650; Halo-JF635i in paragraph 360)
notes: Secreted protein; also called Probody^V1667D; Probody^V1667D-JF650
binding result [1]: no binding
binding result [2]: no binding

B2: TEV-cleavable Anti-Notch1 probody, Genentech scFv, Wild-type NRR (HaloTag-anti-NRR1-scFv-TEVcs-msNRR1^WT), intact (uncleaved) (other)
chain: B1 chain with D849V
modifications: HaloTag labelled with JFX650 dye
notes: also called Probody with a mask based on the wild-type Notch1-NRR
binding result [3]: no binding

Next, values leading:

binding result [1]: no binding
B3: TEV-cleavable Anti-Notch1 probody, Genentech scFv, S1 loop deletion (HaloTag-anti-NRR1-scFv-TEVcs-msNRR1^V1677D-deltaS1), intact (uncleaved) (other)
chain: YPYDVPDYATGMAEIGTGFPFDPHYVEVLGERMHYVDVGPRDGTPVLFLHGNPTSSYVWRNIIPHVAPTHRCIAPDLIGMGKSDKPDLGYFFDDHVRFMDAFIEALGLEEVVLVIHDWGSALGFHWAKRNPERVKGIAFMEFIRPIPTWDEWPEFARETFQAFRTTDVGRKLIIDQNVFIEGTLPMGVVRPLTEVEMDHYREPFLNPVDREPLWRFPNELPIAGEPANIVALVEEYMDWLHQSPVPKLLFWGTPGVLIPPAEAARLAKSLPNCKAVDIGPGLNLLQEDNPDLIGSEIARWLSTLEISGGGGGSTGDGGGGEVQLVESGGGLVQPGGSLRLSCAASGFTFSSYWIHWVRQAPGKGLEWVARINPPNRSNQYADSVKGRFTISADTSKNTAYLQMNSLRAEDTAVYYCARGSGFRWVMDYWGQGTLVTVSSGGSSRSSSSGGGGSGGGGDIQMTQSPSSLSASVGDRVTITCRASQDVSTAVAWYQQKPGKAPKLLIYSASFLYSGVPSRFSGSGSGTDFTLTISSLQPEDFATYYCQQFYTTPSTFGQGTKVEIKGSNSGGTLEGGGSGENLYFQGGGGGRTGGGSEQKLISEEDLGGGSILDYSFTGGAGRDIPPPQIEEACELPECQVDAGNKVCNLQCNNHACGWDGGDCSLNFNDPWKNCTQSLQCWKYFSDGHCDSQCNSAGCLFDGFDCQLTEGQCNPLYDQYCKDHFSDGHCDQGCNSAECEWDGLDCAEHVPERLAAGTLVLVVLLPPDQLRNNSFHFLRELSHVLHTNVVFKRDAQGQQMIFPYYGMDIRGSIDYLEIDNRQCVQSSSQCFQSATDVAAFLGALASLGSLNIPYKIEAVKSEPVEGPV
modifications: HaloTag domain conjugated with JFX650 dye
notes: also called Probody^V1667D(ΔS1); Probody^V1667D(ΔS1)-JF650

binding result [4]: binds
binding result [5]: binds
binding result [6]: binds
B4: 'A-2' variant of the anti-NRR1 scFv (mask domain) (scFv)
scFv: EVQLVESGGGLVQPGGSLRLSCAASGFTFSSYWIHWVRQAPGKGLEWVARINPPNRSNQYADSVKGRFTISADTSKNTAYLQMNSLRAEDTAVYYCARGSGFRWVMDYWGQGTLVTVSSGGSSRSSSSGGGGSGGGGDIQMTQSPSSLSASVGDRVTITCRASQDVSTAVAWYQQKPGKAPKLLIYSASFLYSGVPSRFSGSGSGTDFTLTISSLQPEDFATYYCQQFYTTPSTFGQGTKVEIK
notes: Tested as the N-terminal mask domain of receptors HA-Halo-antiNRR-TEVs-NRR-GAL4VP64, that is on the same polypeptide as the NRR until TEVp cleaves the linker; carries HA tag and HaloTag at its N-terminus; also called A2 scFv
